Results as given in patent publication US20100221248A1 (MIT, published 2010).
Changes are numbered by the printed parent chain.

T1: human FcγRIIA, 131R allele, soluble (human, UniProt P12318 34-217, limits assumed)
T1 construct: also called hFcγRIIA
T1 sequence (looked up): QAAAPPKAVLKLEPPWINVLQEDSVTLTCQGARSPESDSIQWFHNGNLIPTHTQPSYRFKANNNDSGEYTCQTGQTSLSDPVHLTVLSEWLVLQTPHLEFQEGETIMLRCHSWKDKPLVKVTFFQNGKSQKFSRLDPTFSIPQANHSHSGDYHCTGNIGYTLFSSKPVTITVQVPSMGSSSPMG

T2: human FcγRIIB, soluble (human, UniProt P31994 43-217, limits assumed)
T2 construct: also called hFcγRIIB
T2 sequence (looked up): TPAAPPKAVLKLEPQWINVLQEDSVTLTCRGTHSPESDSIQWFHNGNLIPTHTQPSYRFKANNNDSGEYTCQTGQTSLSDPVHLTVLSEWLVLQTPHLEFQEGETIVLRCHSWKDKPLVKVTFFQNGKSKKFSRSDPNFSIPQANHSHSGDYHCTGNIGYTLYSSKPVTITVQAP

T3: human FcγRIIA, 131H allele, soluble (human, UniProt P12318 34-217, limits assumed)
T3 construct: also called hFcγRIIA
T3 sequence (looked up): T1 sequence (looked up) with R134H

B1: MBP-IIIA537 (designed binder)
chain: LGENLYFQSVSDVPRDLEVVVATPTSLLINWDLPFSDSYRITYGETGGNSPVQGFTVPGTESIATISGLKPGVDYTITVYAVASSGSNSYPISINYRTEIDKPSQ
notes: Fn3 domain as a C-terminal fusion to MBP, expressed in E. coli Rosetta(DE3); For PBMC labelling it was biotinylated and complexed with streptavidin-PE; also called MBP fusion of IIIA537; not shown: limits and vector linker not stat
B2: MBP-IIIA626 (designed binder)
chain: B1 chain with L33M, T42A, G54E, E61D, I63L, A83T
notes: Fn3 domain as a C-terminal fusion to MBP, expressed in E. coli Rosetta(DE3); For PBMC labelling it was biotinylated and complexed with streptavidin-PE; also called MBP fusion of IIIA626; not shown: limits and vector linker not stat
B3: IIA726 (mutant Fn3 domain, yeast surface-displayed clone) (designed binder)
chain: VSDVPGDLEVVAATPTSLLISWCTHLHWDYYRIFYGETGGNSPVQEFTVPALCPGATISGLKPGVDYTITAYAVTVGGDDWPISINYRTEIDEPSQ
notes: It contains a pair of Cys residues in the BC and DE loops; also called yeast surface-displaying IIA726
B4: IIA827 (mutant Fn3 domain, yeast surface-displayed clone) (designed binder)
chain: B3 chain with I83S
notes: Derived from IIA726 by a single mutation, printed '188S'; also called clone IIA827
B5: MBP-IIA726 (designed binder)
chain: LGENLYFQSVSDVPGDLEVVAATPTSLLISWCTHLHWDYYRIFYGETGGNSPVQEFTVPALCPGATISGLKPGVDYTITAYAVTVGGDDWPISINYRTEIDEPSQ
notes: Fn3 domain as a C-terminal fusion to MBP; It was first expressed in Rosetta(DE3), then in Rosetta-gami 2 to promote the disulfide bond between the BC and DE loops; For PBMC labelling it was biotinylated and complexed with streptavidin-PE; also called MBP fusion of IIA726; not shown: limits and vector linker not stat
B6: MBP-IIA827 (designed binder)
chain: B5 chain with I92S
notes: Produced in Rosetta-gami 2; not shown: limits and vector linker not stat

What was measured:
[1] = target: T1, human FcγRIIA, 131R allele, soluble; assay: SPR (Biacore T100), MBP-Fn3 immobilized, soluble FcR injected
Description: (§1) Surface Plasmon Resonance Analysis. Steady state affinity measurements were performed on a Biacore T100 biosensor. MBP-Fn3 fusion proteins were immobilized to CM5 sensor chips (Biacore) by standard amine coupling. […] Dissociation constants were calculated after subtraction of background binding to a control flow cell using Biacore T100 Evaluation software.

human FcγRIIB, soluble = target: T2, human FcγRIIB, soluble; assay: as above
Description: as §1

[2] = target: T3, human FcγRIIA, 131H allele, soluble; assay: as above
Description: as §1

[3] = target: T4, human FcγRIIIA on the surface of human peripheral blood mononuclear cells (non-lymphocyte gate) (human, UniProt P08637 17-254); assay: flow cytometry of human PBMCs with biotinylated MBP-Fn3 complexed to streptavidin-PE
T4 construct: whole, on cells; The target is inferred from the stated aim of the experiment, which was recognition of FcRs expressed on cell surfaces; also called RIIIA on PBMCs
Excerpt: To determine whether the Fn3 domains were able to recognize FcRs expressed on cell surfaces, each MBP-Fn3 fusion protein was biotinylated, complexed with streptavidin-PE and used to label human peripheral blood mononuclear cells (PBMCs).

[4] = target: T5, RIIA131R tetramer (biotinylated human FcγRIIA 131R complexed to streptavidin-PE) (human, UniProt P12318 34-217; P22629 37-163, limits assumed, PE conjugate; singly biotinylated); assay: yeast display titration with PE-tagged tetramer, flow cytometry; apparent (avid) Kd; parent clone IIA726 from the seventh FACS sort
T5 construct: Biotinylated FcR incubated with streptavidin-PE at a 4:1 molar ratio; Kd values measured against it are apparent (avid) values; also called RIIA tetramer; PE-tagged RIIA tetramer
Description: (§2) The yeast cells were washed and analyzed by flow cytometry.
(§3) Characterization of Individual Clones. Plasmid DNA was recovered from the later library generations (Zymoprep II kit) and transformed into competent DH5a bacteria (Invitrogen). Individual colonies (usually ten) were grown, miniprepped, and sequenced, as well as re-transformed into EBY100 yeast (EZ Yeast Transformation Kit, Zymo Research). The resulting clones were cultured in SD-CAA and induced in SG-CAA for analysis. To rapidly compare different clones, 0.1 OD.ml aliquots of yeast were labeled with a low and a high concentration of PE-tagged RIIA (1 nM, 30 nM) or RIIIA (0.3 nM, 10 nM) tetramer for 1 hour at RT prior to flow cytometry (Coulter Epics XL). The apparent tetramer Kd was estimated from the ratio of the two mean fluorescence readings. […] The labeling volumes (in PBSA) were chosen to give at least a 10-fold excess of FcR over Fn3. The yeast cells were centrifuged and washed with 0.5 ml PBSA for analysis by flow cytometry. The Kd value was determined by fitting the data to the equation y=A[tetramer]/([tetramer]+Kd)+B.

[5] = target: T6, RIIB tetramer (biotinylated human FcγRIIB complexed to streptavidin-PE) (human, UniProt P31994 43-217; P22629 37-163, limits assumed, PE conjugate; singly biotinylated); assay: flow cytometry titration of yeast surface-displayed IIA726 with streptavidin-PE RIIB tetramer, 2 h at room temperature
T6 construct: Biotinylated FcR incubated with streptavidin-PE at a 4:1 molar ratio; also called PE-tagged RIIB tetramer
Description: as §2, §3

[6] = target: T5, RIIA131R tetramer (biotinylated human …); assay: flow cytometry titration of yeast surface-displayed IIA726 with streptavidin-PE RIIA131R tetramer, 2 h at room temperature
Description: as §2, §3

[7] = target: T6, RIIB tetramer (biotinylated human …); assay: yeast display, flow cytometry with PE-tagged tetramer
[8] = target: T5, RIIA131R tetramer (biotinylated human …); assay: yeast display with PE-tagged tetramer, flow cytometry; apparent (avid) Kd; clone IIA827, IIA726 with the single mutation printed 188S
Description: as §3

[9] = target: T1, human FcγRIIA, 131R allele, soluble; assay: SPR (Biacore T100), steady state, MBP-Fn3 immobilized, soluble FcR injected
Description: as §1

[10] = target: T3, human FcγRIIA, 131H allele, soluble; assay: as above
Description: as §1

T5 sequence (P22629 37-163 limits assumed, one chain of several): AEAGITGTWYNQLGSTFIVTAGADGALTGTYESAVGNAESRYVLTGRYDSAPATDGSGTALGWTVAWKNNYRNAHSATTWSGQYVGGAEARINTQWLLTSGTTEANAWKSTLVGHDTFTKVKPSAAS
T6 sequence (P22629 37-163 limits assumed, one chain of several): as above
T4 sequence (P08637 17-254): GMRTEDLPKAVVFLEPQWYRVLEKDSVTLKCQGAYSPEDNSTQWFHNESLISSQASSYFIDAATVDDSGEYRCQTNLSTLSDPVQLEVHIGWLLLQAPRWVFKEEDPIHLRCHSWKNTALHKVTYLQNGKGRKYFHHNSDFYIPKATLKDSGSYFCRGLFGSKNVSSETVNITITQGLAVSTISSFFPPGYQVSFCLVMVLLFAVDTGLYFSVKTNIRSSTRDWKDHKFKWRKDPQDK

Binder | binding result [1] | binding result (human FcγRIIB, soluble) | binding result [2] | binding result [3] | other results
B1 | no binding | no binding | no binding | binds | –
B2 | no binding | no binding | no binding | binds | –
B3 | – | – | – | – | Kd [4]: 1.2 nM; binding result [5]: no binding (tested: 100 nM); EC50 (read off the curve) [6]: ~1 nM
B4 | – | – | – | – | binding result [7]: no binding (tested: 100 nM); Kd [8]: 0.54 nM
B5 | – | no binding | – | – | –
B6 | – | – | – | – | Kd [9]: 850 nM; Kd [10]: 6200 nM
